Measurements from patent US20260250341A1.

Legend:
[1] = biological target: Recombinant Human FGFR1 alpha (IIIc) Fc Chimera Protein (R&D systems, 658-FR-050) (human) (UniProt P11362); test: ELISA: FGFR1-Fc coated at 0.5 ug/ml, FGF sample at 80 ng/ml, biotinylated anti-FGF antibody BAM233 and streptavidin-HRP, blank subtracted; sample kept 0 h at 37 C
[2] = biological target: Recombinant Human FGFR1 alpha (IIIc) Fc Chimera Protein (R&D systems, 658-FR-050) (human) (UniProt P11362); test: ELISA: FGFR1-Fc coated at 0.5 ug/ml, FGF sample at 80 ng/ml, biotinylated anti-FGF antibody BAM233 and streptavidin-HRP, blank subtracted; sample kept 6 h at 37 C
[3] = biological target: Recombinant Human FGFR1 alpha (IIIc) Fc Chimera Protein (R&D systems, 658-FR-050) (human) (UniProt P11362); test: ELISA: FGFR1-Fc coated at 0.5 ug/ml, FGF sample at 80 ng/ml, biotinylated anti-FGF antibody BAM233 and streptavidin-HRP, blank subtracted; sample kept 24 h at 37 C
[4] = biological target: Recombinant Human FGFR1 alpha (IIIc) Fc Chimera Protein (R&D systems, 658-FR-050) (human) (UniProt P11362); test: ELISA: FGFR1-Fc coated at 0.5 ug/ml, FGF sample at 80 ng/ml, biotinylated anti-FGF antibody BAM233 and streptavidin-HRP, blank subtracted; sample kept 48 h at 37 C

Sequence of Recombinant Human FGFR1 alpha (IIIc) Fc Chimera Protein (R&D systems, 658-FR-050) (human) (P11362 22-376, change not shown): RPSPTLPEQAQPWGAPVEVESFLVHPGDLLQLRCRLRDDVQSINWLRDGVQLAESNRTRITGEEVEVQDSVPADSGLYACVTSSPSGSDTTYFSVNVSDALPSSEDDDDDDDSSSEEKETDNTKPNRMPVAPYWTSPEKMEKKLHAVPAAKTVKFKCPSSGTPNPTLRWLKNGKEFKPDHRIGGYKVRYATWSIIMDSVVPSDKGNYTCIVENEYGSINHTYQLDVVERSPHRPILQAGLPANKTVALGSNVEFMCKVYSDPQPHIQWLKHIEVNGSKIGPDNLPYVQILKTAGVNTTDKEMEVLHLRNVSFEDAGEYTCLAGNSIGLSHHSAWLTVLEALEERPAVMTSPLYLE

B1: FGF320 (FGF1 + FGF2-CHIMERA_Pig) (ligand)
chain: MANYKKPKLLYCSNGGHFLRIHPDGRVDGVREKSDPHIKLQLQAEERGVVSIKGVCANRYLAMDTSGLLYGSQTPSEECLFLERLEENHYNTYTSKKHAEKNWFVGLKKNGSCKRGPRTHYGQKAILFLPLPV
Absorbance (450 nm) (absorbance (450 nm)) [1]: 2.1
Absorbance (450 nm) (absorbance (450 nm)) [2]: 0.9
Absorbance (450 nm) (absorbance (450 nm)) [3]: 0.7
Absorbance (450 nm) (absorbance (450 nm)) [4]: 0.6

B2: FGF323 (FGF1 + FGF2-CHIMERA_Pig_C12S; Q43I; A62C; H89G; C113A) (ligand)
chain: MANYKKPKLLYSSNGGHFLRIHPDGRVDGVREKSDPHIKLQLIAEERGVVSIKGVCANRYLCMDTSGLLYGSQTPSEECLFLERLEENGYNTYTSKKHAEKNWFVGLKKNGSAKRGPRTHYGQKAILFLPLPV
Absorbance (450 nm) (absorbance (450 nm)) [1]: 2.5
Absorbance (450 nm) (absorbance (450 nm)) [2]: 2.4
Absorbance (450 nm) (absorbance (450 nm)) [3]: 2.3
Absorbance (450 nm) (absorbance (450 nm)) [4]: 2.3
